Consider 1 substance from article PMC6356355.

The target of the assay is Toll-like receptor 9 (rat (endogenous in AR4-2J)).

In the case of “Recombinant histone H4 (from UniProt P62805 1-103) (natural protein)”, the blockade of H4 (5 mgL^-1)-induced calcium oscillations in AR4-2J cells by simultaneous perfusion of TLR9 antagonist ODN2088 (5 uM) amounted to 88%.
